We go through one substance from PMC6141708.

For the assay, the target named is recombinant GST-RhoA (UniProt P61586). In words: pull-down; recombinant GST-RhoA on beads; lysates of 293T cells transfected with WT or S9A Fam65b-GFP; 2 h at 4°C; pull-down buffer; anti-GFP immunoblot, band intensities in the pull-down normalised to the total lysate, four independent experiments. Background: A western blot detects proteins with antibodies after separation by electrophoresis.
Sequence of UniProt P61586 (P61586 whole entry): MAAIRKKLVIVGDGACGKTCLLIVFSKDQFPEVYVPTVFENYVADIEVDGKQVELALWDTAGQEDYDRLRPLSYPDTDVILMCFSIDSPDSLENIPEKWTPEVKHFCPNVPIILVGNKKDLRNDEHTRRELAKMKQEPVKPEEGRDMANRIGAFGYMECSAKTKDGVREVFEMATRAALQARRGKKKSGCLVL

As to “Fam65b(S9A)-GFP (isoform 2) (natural protein)”, the fold of Fam65b bound to RhoA against WT Fam65b-GFP was 1.8 fold.
